This is an account of results in patent publication US8394929B2, “Nogo receptor-mediated blockade of axonal growth” (Yale University, priority 2000, dated 2013).

Series [1] concerns dorsal root ganglion neurons. The series can be described thus: Cell survival in GST-Nogo-treated DRG cultures. The series is classed as cell-based, chick. The source says:
The nanomolar potency is on a par with most known physiologic regulators of axon guidance.

In series [2] the target is T1, NgR carboxy terminal deletion mutant (NgRΔCT) (Mus musculus, UniProt Q99PI8).
T1 construct: expressed in transfected cells; host or cells: chick E7 retinal ganglion cell explants infected with recombinant HSV
T1 sequence (Q99PI8 with tags, fused parts or gaps): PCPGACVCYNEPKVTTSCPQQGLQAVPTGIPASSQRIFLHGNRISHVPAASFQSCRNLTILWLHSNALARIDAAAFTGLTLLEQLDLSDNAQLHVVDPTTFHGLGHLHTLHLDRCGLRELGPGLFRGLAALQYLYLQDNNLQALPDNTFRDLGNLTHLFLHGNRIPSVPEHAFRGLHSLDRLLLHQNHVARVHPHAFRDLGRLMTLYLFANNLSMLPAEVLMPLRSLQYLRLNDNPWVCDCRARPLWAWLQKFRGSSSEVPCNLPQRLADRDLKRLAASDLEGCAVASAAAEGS
The series can be described thus: Growth cone collapse in E7 retinal ganglion cells infected with NgRΔCT. The class given is cell-based. The protocol: Because the mouse NgRCT domain was determined to be dispensable for hNogo-A (1055-1120) binding, the ability of NgRΔCT to mediate Nogo-dependent inhibition was examined. HSVNgR constructs transfected into HEK293T cells mediated the expression of mNgR proteins of the predicted molecular weight, as determined by SDS-PAGE and anti-Myc and anti-NgR immunoblotting (FIG. 19A). Day E7 chick retinal ganglion cells (RGCs) were grown for 12 hr, then further incubated for 24 hr with HSVNgR preparations. Explants were fixed with 4% paraformaldehyde with 0.1 M PO4 and 20% sucrose and stained with phalloidin or with anti-myc antibodies. HSVNgR protein expression was detected in axons of infected (RGC) cultures (FIG. 19B).
Growth cone collapse in response to GST-hNogo-A (1055-1120) was investigated in infected RGC cultures. Retinal explants infected with recombinant viral preparations of PlexinA1 (PlexA1), wild-type NgR (wtNgR), NgRL1 chimeric receptor in which the GPI domain has been replaced by the transmembrane region and cytoplasmic tail from the mouse adhesion protein L1 (NgRL1), or NgR carboxy terminal deletion mutant (NgRΔCT) for 12 hr. Following infection, the cells were treated for 30 min with 0, 50, 250, or 500 nM GST-hNogo-A (1055-1120) (GrandPre et al., Nature 403: 439-444, 2000), fixed with 4% paraformaldehyde with 0.1 M PO4 and 20% sucrose, and stained with phalloidin. […]

The next series concerns the target T2, NgRL1 chimeric receptor (Mus musculus, UniProt P11627+Q99PI8).
T2 construct: L1NgR encodes residues 1-451 of mouse NgR fused to the transmembrane and cytoplasmic tail of mouse L1; expressed in transfected cells; host or cells: chick E7 retinal ganglion cells infected with recombinant HSVL1NgR
Briefly: Growth cone collapse in E7 retinal ganglion cells infected with NgRL1. The series is classed as cell-based. Here is the method:
Growth cone collapse in response to GST-hNogo-A (1055-1120) was investigated in infected RGC cultures. Retinal explants infected with recombinant viral preparations of PlexinA1 (PlexA1), wild-type NgR (wtNgR), NgRL1 chimeric receptor in which the GPI domain has been replaced by the transmembrane region and cytoplasmic tail from the mouse adhesion protein L1 (NgRL1), or NgR carboxy terminal deletion mutant (NgRΔCT) for 12 hr. Following infection, the cells were treated for 30 min with 0, 50, 250, or 500 nM GST-hNogo-A (1055-1120) (GrandPre et al., Nature 403: 439-444, 2000), fixed with 4% paraformaldehyde with 0.1 M PO4 and 20% sucrose, and stained with phalloidin. […] Cells infected with NgRΔCT were insensitive to GST-hNogo-A (1055-1120). The CT region of NgR is therefore required for effective NgR inhibitory signaling.
To test the signaling capability of NgRLI, recombinant HSVL1NgR preparations were produced and used to infect E7 RGCs. Infected RGCs were treated with GST-hNogo-A (1055-1120) and growth cone collapse was assessed (FIG. 20). […] Because the intracellular signals induced by Nogo have not been elucidated, it remains to be determined if ligand binding effects signaling events at caveolar microdomains.

The next series has as its system mNgR deletion mutants. The series can be described thus: AP-hNogo-A (1055-1120) binding to COS-7 cells transfected with other mNgR deletion mutants. Set-up: species or system mouse. From the text:
The NgΔRNT construct encodes residues 58 to 473 of mNgR. The NgRANT construct was made by using the primers ΔLRR-NT5 (5′-[…]-3′) and NgR3X (5′-[…]-3′) to amplify a sequence from the wtNgR-pSecTag2Hygro plasmid. The amplified sequence was ligated into the XhoI/BamHI of pSecTag2.
The NgLRR-construct encodes residues 306 to 473 of mNgR. The NgLRR construct was made by using the primers, MycNgR305 (5′-[…]-3′) and NgR3X (above) to amplify a sequence from the from the wtNgR-pSecTag2Hygro plasmid. The amplified sequence was ligated into the XhoI/BamHI of pSecTag2.
The mNgR LLR deletions and NgRΔLRRCT deletion mutants were generated using ExSite™ PCR-based site-directed mutagenesis kit (Stratagene, La Jolla, Calif.). Generally, the primers described below were used to amplify a sequence from the wtNgR pSecTag2 plasmid. The ends of the amplified products were ligated together. The resulting constructs were transfected into COS-7 cells.
The NgRΔ1-2 construct encodes residues 1 to 56 and residues 106 to 473 of mNgR. The primers used for making the NgRΔ1-2 construct were DEL LRR (5′PO4) (5′-[…]-3′) and DEL LRR2 (5′-[…]-3′). […]
To determine whether mNgR or mNgR deletion mutants bound to hNogo-A (1055-1120), wtNgR or mNgR deletion mutants were transfected into COS-7 cells. […] AP-fusion protein was detected as previously described for AP-Sema3A (Takahashi et al., Nature Neurosci. 1:487-493, 1998).

T2 sequence (Q99PI8+P11627 fused, change not shown): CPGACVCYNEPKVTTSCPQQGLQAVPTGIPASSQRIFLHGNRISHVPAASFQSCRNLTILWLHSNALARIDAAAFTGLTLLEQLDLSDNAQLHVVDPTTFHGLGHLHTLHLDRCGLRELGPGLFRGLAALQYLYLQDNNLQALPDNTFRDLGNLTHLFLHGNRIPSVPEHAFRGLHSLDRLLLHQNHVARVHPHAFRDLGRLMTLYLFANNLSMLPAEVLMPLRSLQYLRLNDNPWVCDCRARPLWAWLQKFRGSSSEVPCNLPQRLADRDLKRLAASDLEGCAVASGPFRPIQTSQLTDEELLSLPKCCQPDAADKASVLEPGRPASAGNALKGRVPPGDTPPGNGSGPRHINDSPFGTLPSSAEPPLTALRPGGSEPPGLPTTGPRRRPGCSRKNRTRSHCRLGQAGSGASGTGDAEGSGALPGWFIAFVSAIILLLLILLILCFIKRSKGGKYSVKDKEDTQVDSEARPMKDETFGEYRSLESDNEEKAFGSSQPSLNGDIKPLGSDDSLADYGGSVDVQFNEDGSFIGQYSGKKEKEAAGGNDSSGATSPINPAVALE

B1: GST-Nogo: GST fusion protein of the 66 amino acid lumenal-extracellular fragment of Nogo-A, expressed in E. coli (protein)
chain: RIYKGVIQAIQKSDEGHPFRAYLESEVAISEELVQKYSNSALGHVNCTIKELRRLFLVDDLVDSLK
modifications: also: GST fusion protein
notes: GST fusion protein of the 66 amino acid lumenal-extracellular fragment of Nogo-A, expressed in E. coli
In the case of B1, the “number of neurofilament-positive adherent cells” value in series [1] was 137±24 % of GST-treated cultures. Moreover, in series [1] (GST-Nogo-treated specimens), the “apoptotic nuclei identified by DAPI staining” value was found to be 5.2±1.1%. Besides, the “growth cone collapse response (in words)” value in series [2] was “insensitive”; with NgRL1 chimeric receptor (50 nM GST-hNogo-A (1055-1120)), “not responsive”; with NgRL1 chimeric receptor (high concentrations of GST-hNogo-A (1055-1120)) it was “transduces Nogo signals as efficiently as wtNgR”.

B2: AP-Nogo: fusion protein of His6 tag, placental alkaline phosphatase (AP) and the 66 amino acid active domain of Nogo (protein)
chain: HHHHHHIIPVEEENPDFWNREAAEALGAAKKLQPAQTAAKNLIIFLGDGMGVSTVTAARILKGQKKDKLGPEIPLAMDRFPYVALSKTYNVDKHVPDSGATATAYLCGVKGNFQTIGLSAAARFNQCNTTRGNEVISVMNRAKKAGKSVGVVTTTRVQHASPAGTYAHTVNRNWYSDADVPASARQEGCQDIATQLISNMDIDVILGGGRKYMFRMGTPDPEYPDDYSQGGTRLDGKNLVQEWLAKRQGARYVWNRTELMQASLDPSVTHLMGLFEPGDMKYEIHRDSTLDPSLMEMTEAALRLLSRNPRGFFLFVEGGRIDHGHHESRAYRALTETIMFDDAIERAGQLTSEEDTLSLVTADHSHVFSFGGYPLRGSSIFGLAPGKARDRKAYTVLLYGNGPGYVLKDGARPDVTESESGSPEYRQQSAVPLDEETHAGEDVAVFARGPQAHLVHGVQEQTFIAHVMAFAACLEPYTACDLAPPAGTTDAAHPGRIYKGVIQAIQKSDEGHPFRAYLESEVAISEELVQKYSNSALGHVNCTIKELRRLFLVDDLVDSLK
B2: the “binding (in words)” value in the series with mNgR deletion mutants is given as “did not”.
